Source: patent US20160319032A1 (MEDLMMUNE, published 2016)
Numbering of substitutions follows the chain as printed.

B1: sc 254 (antibody, V domains shown)
VH: QVQLQESGPGLVKPSQTLSLTCTVSGGSISSGGYYWSWIRQHPGKGLEWIGYIYYSGSTYYNPSLKSRVTISVDTSKNQFSLKLSSVTAADTAMYYCARYRGPAAGRGDFYYFGMDVWGQGTTVTVSS
VL: DIVMTQTPLSLSVTPGQPASIFCKSSQSLLNSDGKTYLCWYLQKPGQPPQLLIYEVSNRFSGVPDRFSGSGSGTDFTLKISRVEAEDVGVYYCMQGIQLPWAFFGQGTKVEIK
notes: kappa light chain
B2: sc 161 (antibody, V domains shown)
VH: EVQLVQSGAEVKKPGESLKISCKGSGYSFTSYWIGWVRQMPGKGLEWMGIIYPGDSDTRYSPSFQGQVTISADKSISTAYLQWSSLKASDTAMYYCARHGIAAAGFYYYYMDVWGQGTTVTVSS
VL: EIVLTQSPDTLSLSPGERASLSCRASQNVNRNYLVWYQQKPGQAPRLLIYGTSNRATGIPDRFSGSGSGTDFTLTISRLEPEDFAVYYCQQCGSLPFTFGPGTKVDIKR
notes: kappa light chain
B3: sc 277 (antibody, V domains shown)
VH: EVQLVQSGAEVKKPGESLKISCKGSGYSFPSYWIGWVRQMPGKGLEWMGIIYPGDSDTRYSPSFQGQVTISADKSISTAYLQWSSLKASDTAMYYCARHPMEDGMDVWGQGTTVTVSS
VL: SYELTQPPSVSVSPGQTARITCSGDALPKKYAFWYQQKSGQAPVLVIYDDNKRPSGIPERFSGSSSGTMATLTITGAQVEDEADYYCYSTDSSGHHVFGGGTKLTVL
notes: lambda light chain
B4: sc 58 (antibody, V domains shown)
VH: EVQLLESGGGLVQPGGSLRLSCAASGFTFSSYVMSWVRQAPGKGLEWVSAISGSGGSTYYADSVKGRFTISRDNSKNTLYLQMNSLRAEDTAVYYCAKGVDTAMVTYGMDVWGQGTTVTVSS
VL: SYELTQPPSVSVSPGQTARITCSGDALPKKYAYWYQQKSGQAPVLVIYDDSKRPSGIPERFSGSSSGTMATLTISGAQVEDEADYYCYSTDSSGNHRVFGGGTKLTVL
notes: lambda light chain; also called sc 058
B5: sc 188 (antibody, V domains shown)
VH: QVQLQESGPGLVKPSQTLSLTCTVSGGSISSGVYYWTWIRQHPGNGLEWIGYIYYSGSTSYNPSLKSRVTISVDTSKKQFSLNLTSVTAADTAVYYCAREGPLRGDYYYGLDVWGQGTTVTVSS
VL: EIVLTQSPGTLSLSPGERATLSCRAGQTISSRYLAWYQQKPGQAPRPLIYGASSRATGIPDRFSGSGSGTDFTLTISRLEPEDFAVYYCQQYGSSPRTFGQGTKVEIK
notes: kappa light chain
B6: sc 264 RAD (antibody, V domains shown)
VH: QVQLQESGPGLVKPSQTLSLTCTVSGGSISSGGYYWSWIRQHPGKGLEWIGYIYYSGRTYNNPSLKSRVTISVDTSKNQFSLKLSSVTAADTAVYYCARVATGRADYHFYAMDVWGQGTTVTVSS
VL: SYELTQPSSVSVSPGQTARITCSGDVLAKKSARWFHQKPGQAPVLVIYKDSERPSGIPERFSGSSSGTTVTLTISGAQVEDEAAYYCYSAADNNLVFGGGTKLTVL
B7: sc 188 SDM (antibody, V domains shown)
VH: B5 VH with N83K
VL: B5 VL
B8: sc 97 (antibody, V domains shown)
VH: EVQLVQSGAEVKKPGESLKISCKGSGYSFTSYWIGWVRQMPGKGLEWMGIIYPGDSDTRYSPSFQGQVILSADKSISTAYLQWSSLKASDTAMYYCARHDESSGYYYVFDIWGQGTMVTVSS
VL: SYELTQPPSVSVSPGQTARITCSGDALPKKYAYWYQQKSGQAPVLVIYEDIKRPSGIPERFSGSSSGTMATLTISGAQVEDEADYYCYSTDSSGNHWVFFGGGTKLTVL
notes: lambda light chain; also called sc 097
B9: sc 320 (antibody, V domains shown)
VH: EVQLVESGGGLVKPGGSLRLSCAASGYTFTNYIMHWVRQAPGKGLEWVSSISISSSYIYYADSVKGRFTISRDNAKNSLYLQMNSLRAEDTAVYYCARDPVPLERRDYYYGMDVWGQGTTVTVSS
VL: QSVLTQPPSMSAAPGQKVTISCSGSSSNIGNNYVSWYQQLPGTAPKLLIYDNNKRPSGIPDRFSGSKSGTSATLGITGLQTGDEADYYCGTWDSSLSAGVFGGGTKLTVL
notes: lambda light chain
B10: sc 49 (antibody, V domains shown)
VH: QVQLQESGPGLVKPSQTLSLTCTVAGGSIRSGDYYWSWIRQHPGKGLEWIGNIYYSGSTYYNPSLKSRITISVATSRNQFSLKLTSVTAADTAVYYCARGGAITIFGVFDYWGQGTLVTVSS
VL: not shown
notes: kappa light chain; also called sc 049
B11: sc 133 (antibody, V domains shown)
VH: QVQLVQSGAEVKKPGASVKVSCKASGYTFTGYYMHWVRQAPGQGLEWMGWINPKSGDTNYAQKFQGRVTLTRDTSTSTAYMELSRLRSDDTAVYYCARRLDVWGQGTTVTVSS
VL: QSVLTQPPSVSAAPGQKVTISCSGSSSNIGNNYVSWYQQLPGTAPKLLIYDNNKRPSGIPDRFSGSKSGTSATLGITGLQTGDEADYYCGTWNSSLSAGYVFGTGTKVTV
notes: lambda light chain; also called mAb sc 133

These binders were tested against T1, human αVβ6 integrin on cells (human, UniProt P06756 31-1048; P18564 22-788) (assay: cell-based or functional assay).
T1 sequence (P06756 31-1048, chain 1 of 2): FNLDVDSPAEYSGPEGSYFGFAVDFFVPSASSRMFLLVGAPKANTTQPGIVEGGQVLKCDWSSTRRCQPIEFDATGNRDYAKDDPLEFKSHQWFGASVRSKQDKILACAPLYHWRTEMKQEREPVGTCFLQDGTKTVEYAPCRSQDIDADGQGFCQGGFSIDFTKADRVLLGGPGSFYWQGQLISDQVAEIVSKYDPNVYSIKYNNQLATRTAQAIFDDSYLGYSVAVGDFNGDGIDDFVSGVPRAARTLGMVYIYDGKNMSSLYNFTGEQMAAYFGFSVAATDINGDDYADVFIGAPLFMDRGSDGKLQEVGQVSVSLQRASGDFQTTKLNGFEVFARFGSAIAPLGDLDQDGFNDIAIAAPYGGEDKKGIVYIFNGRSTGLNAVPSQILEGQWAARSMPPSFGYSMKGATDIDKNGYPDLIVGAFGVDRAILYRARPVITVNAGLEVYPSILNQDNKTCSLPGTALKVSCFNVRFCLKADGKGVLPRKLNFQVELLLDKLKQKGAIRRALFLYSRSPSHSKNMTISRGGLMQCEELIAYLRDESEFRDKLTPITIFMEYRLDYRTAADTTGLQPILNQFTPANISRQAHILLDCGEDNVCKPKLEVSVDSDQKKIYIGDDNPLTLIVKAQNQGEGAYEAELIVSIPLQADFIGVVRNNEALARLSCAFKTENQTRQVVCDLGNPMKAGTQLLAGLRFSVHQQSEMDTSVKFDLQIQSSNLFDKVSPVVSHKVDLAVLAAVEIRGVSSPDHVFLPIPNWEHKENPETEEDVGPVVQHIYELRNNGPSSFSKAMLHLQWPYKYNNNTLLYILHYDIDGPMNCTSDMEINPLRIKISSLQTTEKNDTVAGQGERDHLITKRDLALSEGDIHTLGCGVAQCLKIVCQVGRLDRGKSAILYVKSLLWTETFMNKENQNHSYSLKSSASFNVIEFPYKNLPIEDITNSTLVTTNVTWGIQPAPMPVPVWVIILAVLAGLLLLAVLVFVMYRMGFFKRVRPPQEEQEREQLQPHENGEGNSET
T1 sequence (P18564 22-788, chain 2 of 2): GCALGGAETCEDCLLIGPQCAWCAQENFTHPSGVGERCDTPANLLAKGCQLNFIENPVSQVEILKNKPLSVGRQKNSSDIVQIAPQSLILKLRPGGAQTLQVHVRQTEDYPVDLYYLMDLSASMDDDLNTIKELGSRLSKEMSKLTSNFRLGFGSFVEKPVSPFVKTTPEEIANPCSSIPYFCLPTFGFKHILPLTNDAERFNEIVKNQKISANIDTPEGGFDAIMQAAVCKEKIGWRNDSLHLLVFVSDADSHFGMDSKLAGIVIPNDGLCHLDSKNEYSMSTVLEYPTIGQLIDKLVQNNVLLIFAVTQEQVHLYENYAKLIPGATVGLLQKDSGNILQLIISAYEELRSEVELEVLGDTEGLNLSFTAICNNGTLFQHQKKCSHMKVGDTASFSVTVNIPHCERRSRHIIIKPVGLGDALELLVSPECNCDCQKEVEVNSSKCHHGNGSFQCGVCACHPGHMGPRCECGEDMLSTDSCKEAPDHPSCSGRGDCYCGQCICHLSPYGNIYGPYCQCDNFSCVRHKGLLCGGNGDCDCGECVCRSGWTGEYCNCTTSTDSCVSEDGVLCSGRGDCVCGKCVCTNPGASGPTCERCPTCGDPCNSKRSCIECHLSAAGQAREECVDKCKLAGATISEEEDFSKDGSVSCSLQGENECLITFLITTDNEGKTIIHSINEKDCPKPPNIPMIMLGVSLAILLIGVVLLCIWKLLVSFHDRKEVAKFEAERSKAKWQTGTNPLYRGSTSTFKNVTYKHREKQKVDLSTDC
In the case of B1, the “Estimated IC50, adhesion assay, n = 1” value is reported as 0.063 µg/mL, the “Estimated IC50, adhesion assay, n = 2” value is reported as 0.037 µg/mL and the “Estimated IC50, adhesion assay, n = 3” value is reported as 0.037 µg/mL. In the case of B2, the “Estimated IC50, adhesion assay, n = 1” value is reported as 2.41 µg/mL and the “Estimated IC50, adhesion assay, n = 2” value is reported as 0.137 µg/mL. With B3 the “Estimated IC50, adhesion assay, n = 1” value was 1.46 µg/mL, the “Estimated IC50, adhesion assay, n = 2” value was 0.54 µg/mL and the “Estimated IC50, adhesion assay, n = 3” value was 0.72 µg/mL. For B4, the “Estimated IC50, adhesion assay, n = 1” value was 4.07 µg/mL, the “Estimated IC50, adhesion assay, n = 2” value was 2.03 µg/mL and the “Estimated IC50, adhesion assay, n = 3” value was 3.26 µg/mL. With B5 the “Estimated IC50, adhesion assay, n = 1” value was 0.041 µg/mL and the “Estimated IC50, adhesion assay, n = 2” value was 0.026 µg/mL.

Target: T1, human αVβ6 integrin on cells
Assay: cell-based or functional assay
Remark: another data set of the same source
In the case of B6, the “IC50, adhesion of HT29 cells, n = 1” value is reported as 0.013 µg/mL, the “IC50, adhesion of HT29 cells, n = 2” value is reported as 0.013 µg/mL and the “IC50, adhesion of HT29 cells, n = 3” value is reported as 0.039 µg/mL. With B5 the “IC50, adhesion of HT29 cells, n = 1” value was 0.125 µg/mL, the “IC50, adhesion of HT29 cells, n = 2” value was 0.157 µg/mL and the “IC50, adhesion of HT29 cells, n = 3” value was 0.064 µg/mL. In the case of B7, the “IC50, adhesion of HT29 cells, n = 1” value is reported as 0.022 µg/mL, the “IC50, adhesion of HT29 cells, n = 2” value is reported as 0.024 µg/mL and the “IC50, adhesion of HT29 cells, n = 3” value is reported as 0.067 µg/mL.

Target: T1, human αVβ6 integrin on cells
Assay: cell-based or functional assay
Remark: another data set of the same source
B1 was tested, and the “Percent Internalization, 1 ug/mL” value was 39% and the “Percent Internalization, 10 ug/mL” value was 49%. For B5, the “Percent Internalization, 1 ug/mL” value was 34% and the “Percent Internalization, 10 ug/mL” value was 38%.

The binders below were run against T2, cynomolgus αVβ6 on cells (cynomolgus) (assay: FACS, supernatant, HEK-293 transfected with cynomolgus αV and β6).
T2 construct: whole, on cells; also called macaque αVβ6; Mac AVB6
With B8 the “% Cells Shifted” value was 35% and the GeoMean was 37. In the case of B9, the “% Cells Shifted” value is reported as 19% and the GeoMean is reported as 33.5. In the case of B4, the “% Cells Shifted” value is reported as 25% and the GeoMean is reported as 22.8. In the case of B10, the “% Cells Shifted” value is reported as 23% and the GeoMean is reported as 30.2. In the case of B11, the “% Cells Shifted” value is reported as 32% and the GeoMean is reported as 35.2.

Target: T1, human αVβ6 integrin on cells
Assay: cell-based or functional assay
Remark: another data set of the same source
In the case of B6, the “Percent Internalization, 1 ug/ml” value is reported as 31% and the “Percent Internalization, 10 ug/ml” value is reported as 42%. B5 was tested, and the “Percent Internalization, 1 ug/ml” value was 27% and the “Percent Internalization, 10 ug/ml” value was 18%. With B7 the “Percent Internalization, 1 ug/ml” value was 17% and the “Percent Internalization, 10 ug/ml” value was 22%.

The binders below were run against T3, α5β1 integrin on K562 cells (UniProt P08648 42-1049; P05556 21-798) (assay: cell-based or functional assay).
T3 sequence (P08648 42-1049, chain 1 of 2): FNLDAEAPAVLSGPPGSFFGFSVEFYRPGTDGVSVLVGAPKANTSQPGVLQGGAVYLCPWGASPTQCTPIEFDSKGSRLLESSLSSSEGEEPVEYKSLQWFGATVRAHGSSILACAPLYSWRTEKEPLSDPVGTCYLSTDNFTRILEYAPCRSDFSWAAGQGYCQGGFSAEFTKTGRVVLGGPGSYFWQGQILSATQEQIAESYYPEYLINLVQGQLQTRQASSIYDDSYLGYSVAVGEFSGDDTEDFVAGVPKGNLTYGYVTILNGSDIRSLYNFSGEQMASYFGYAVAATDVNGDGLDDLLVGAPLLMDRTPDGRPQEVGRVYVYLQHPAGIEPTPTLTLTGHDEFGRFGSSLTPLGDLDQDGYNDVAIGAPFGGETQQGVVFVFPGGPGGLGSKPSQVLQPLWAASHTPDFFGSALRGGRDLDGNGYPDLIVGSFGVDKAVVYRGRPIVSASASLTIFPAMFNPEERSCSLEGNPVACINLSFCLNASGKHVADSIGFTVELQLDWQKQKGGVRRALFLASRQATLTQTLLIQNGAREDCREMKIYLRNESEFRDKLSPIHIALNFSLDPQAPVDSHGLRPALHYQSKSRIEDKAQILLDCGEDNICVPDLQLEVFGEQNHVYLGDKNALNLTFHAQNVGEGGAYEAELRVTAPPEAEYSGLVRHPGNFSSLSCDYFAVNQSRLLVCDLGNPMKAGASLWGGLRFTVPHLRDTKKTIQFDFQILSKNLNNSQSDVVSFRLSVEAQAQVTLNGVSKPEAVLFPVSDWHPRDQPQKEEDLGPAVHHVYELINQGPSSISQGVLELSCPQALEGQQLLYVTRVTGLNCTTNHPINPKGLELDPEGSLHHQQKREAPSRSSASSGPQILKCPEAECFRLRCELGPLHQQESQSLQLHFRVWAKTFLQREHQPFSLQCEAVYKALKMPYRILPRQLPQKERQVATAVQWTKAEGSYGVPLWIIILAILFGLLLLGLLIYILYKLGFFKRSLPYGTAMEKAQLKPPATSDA
T3 sequence (P05556 21-798, chain 2 of 2): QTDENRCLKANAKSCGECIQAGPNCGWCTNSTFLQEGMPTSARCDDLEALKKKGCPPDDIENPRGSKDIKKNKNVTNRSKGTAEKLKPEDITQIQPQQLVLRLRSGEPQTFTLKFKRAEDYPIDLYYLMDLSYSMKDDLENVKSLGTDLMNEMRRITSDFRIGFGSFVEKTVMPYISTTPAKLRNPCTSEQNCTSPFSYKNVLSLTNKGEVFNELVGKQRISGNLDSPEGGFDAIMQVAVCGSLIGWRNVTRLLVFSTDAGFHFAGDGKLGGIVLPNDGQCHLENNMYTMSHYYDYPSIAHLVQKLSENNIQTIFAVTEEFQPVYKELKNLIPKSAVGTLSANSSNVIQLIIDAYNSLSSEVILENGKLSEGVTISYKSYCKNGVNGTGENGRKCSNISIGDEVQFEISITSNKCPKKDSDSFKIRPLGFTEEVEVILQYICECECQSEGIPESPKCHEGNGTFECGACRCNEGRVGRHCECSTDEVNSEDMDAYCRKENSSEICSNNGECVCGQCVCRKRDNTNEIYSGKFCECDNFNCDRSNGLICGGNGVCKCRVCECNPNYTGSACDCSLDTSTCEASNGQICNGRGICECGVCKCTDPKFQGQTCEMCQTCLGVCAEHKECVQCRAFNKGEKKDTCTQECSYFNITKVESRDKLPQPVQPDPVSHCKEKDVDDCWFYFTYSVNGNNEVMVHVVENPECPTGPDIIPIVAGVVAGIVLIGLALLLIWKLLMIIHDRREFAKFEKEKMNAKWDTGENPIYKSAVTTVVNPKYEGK
In the case of B6, the “% Inhibition of K562 adhesion to fibronectin” value (shortened to “% Inhibition of K562 adhesion”) is reported as 6%. B5 was tested, and the “% Inhibition of K562 adhesion” value was -5%. B7 was tested, and the “% Inhibition of K562 adhesion” value was -8%.

Target: T3, α5β1 integrin on K562 cells
Assay: cell-based or functional assay
Remark: another data set of the same source
For B1, the “Percent Inhibition of K562 adhesion to FN9-10, 5 ug/ml” value (“Percent Inhibition of K562 adhesion” for short) was -9%. With B5 the “Percent Inhibition of K562 adhesion” value was 5%. For B11, the “Percent Inhibition of K562 adhesion” value was -12%.

Target: T1, human αVβ6 integrin on cells
Assay: cell-based or functional assay
Remark: another data set of the same source
In the case of B1, the “Assay 1 % Inhibition of adhesion” value is reported as 98%, the “Assay 2 % Inhibition of adhesion” value is reported as 106% and the “Average % Inhibition of adhesion” value is reported as 102%. In the case of B2, the “Assay 1 % Inhibition of adhesion” value is reported as 98%, the “Assay 2 % Inhibition of adhesion” value is reported as 106% and the “Average % Inhibition of adhesion” value is reported as 102%. For B3, the “Assay 1 % Inhibition of adhesion” value was 98%, the “Assay 2 % Inhibition of adhesion” value was 101% and the “Average % Inhibition of adhesion” value was 100%. For B4, the “Assay 1 % Inhibition of adhesion” value was 77%, the “Assay 2 % Inhibition of adhesion” value was 46% and the “Average % Inhibition of adhesion” value was 62%. With B5 the “Assay 1 % Inhibition of adhesion” value was 99%, the “Assay 2 % Inhibition of adhesion” value was 103% and the “Average % Inhibition of adhesion” value was 101%.

Each binder was assayed against T4, α4β1 integrin on J6.77 cells (UniProt P13612 34-1032; P05556 21-798) (assay: cell-based or functional assay).
With B8 the “Percent Inhibition of J6.77 adhesion to CS-1 peptide, 5 ug/ml” value (from here on “Percent Inhibition of J6.77 adhesion”) was -7%. In the case of B1, the “Percent Inhibition of J6.77 adhesion” value is reported as 0%. With B2 the “Percent Inhibition of J6.77 adhesion” value was 12%. B3 was tested, and the “Percent Inhibition of J6.77 adhesion” value was -17%. For B9, the “Percent Inhibition of J6.77 adhesion” value was -8%. In the case of B4, the “Percent Inhibition of J6.77 adhesion” value is reported as -14%. With B5 the “Percent Inhibition of J6.77 adhesion” value was -10%. With B11 the “Percent Inhibition of J6.77 adhesion” value was -15%.

These binders were tested against T1, human αVβ6 integrin on cells (assay: FMAT, supernatant, HEK 293 cells stably overexpressing αVβ6).
In the case of B1, the “FMAT FL1XCount” value is reported as 1.6e+06. B2 was tested, and the “FMAT FL1XCount” value was 16700. With B3 the “FMAT FL1XCount” value was 10700. In the case of B5, the “FMAT FL1XCount” value is reported as 79800.

Target: T4, α4β1 integrin on J6.77 cells
Assay: cell-based or functional assay
Remark: another data set of the same source
With B6 the “Percent Inhibition of J6.77 adhesion” value was -2%. B5 was tested, and the “Percent Inhibition of J6.77 adhesion” value was 2%. B7 was tested, and the “Percent Inhibition of J6.77 adhesion” value was -6%.

Each binder was assayed against human αV on parental A375M cells (αVβ3 and αVβ5 integrins) (human, UniProt P06756 31-1048) (assay: cell-based or functional assay).
Chain of human αV on parental A375M cells (αVβ3 and αVβ5 integrins) (P06756 31-1048 A375M, form in doubt): as the sequence (P06756 31-1048, chain 1 of 2) above, with A345M counted along it
For B11, the “Percent Inhibition of A375M adhesion to osteopontin peptide, 5 ug/ml” value was 3%.
